The supplement of paper PMC9112550, “Optimization of the antimicrobial peptide Bac7 by deep mutational scanning” (BMC Biology, 2022)

system: Escherichia coli TOP10; experiment: shrunken log2 fold change of peptide-encoding DNA abundance (4.5 h post-induction vs induction); higher = less antimicrobial activity (less host growth inhibition); details: time post-induction: 4.5 h; library: site-saturation at positions 5, 18, 19, 20
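Note: peptides expressed intracellularly from a pBAD plasmid library in pooled LB shake-flask culture, induced with 0.3% L-arabinose, DNA abundance read by NGS, three biological replicates, DESeq2 with apeglm shrinkage.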

Sequence | shrunken log2 fold change
RRIRERPPRLPRPRPRPAAHPRP | -0.128
RRIRDRPPRLPRPRPRPSLTPRP | 0.154
RRIRHRPPRLPRPRPRPCIHPRP | -0.345
RRIRLRPPRLPRPRPRPFAVPRP | -0.0849
RRIRTRPPRLPRPRPRPFEMPRP | -0.376
RRIRKRPPRLPRPRPRPGLWPRP | 0.66
RRIRVRPPRLPRPRPRPHSDPRP | 0.0538
RRIRFRPPRLPRPRPRPPKEPRP | 0.0652
RRIRPRPPRLPRPRPRPMGIPRP | 0.21
RRIRMRPPRLPRPRPRPNQFPRP | -0.0124
RRIRFRPPRLPRPRPRPWFVPRP | -0.283
RRIRERPPRLPRPRPRPVDIPRP | -0.105
RRIRERPPRLPRPRPRPRSMPRP | -0.212
RRIRGRPPRLPRPRPRPQRLPRP | 0.329
RRIRDRPPRLPRPRPRPAFEPRP | 0.906
RRIRERPPRLPRPRPRPERMPRP | -0.0648
RRIRLRPPRLPRPRPRPPNIPRP | -0.346
RRIRWRPPRLPRPRPRPLKYPRP | -0.384
RRIRMRPPRLPRPRPRPYLIPRP | -0.463
RRIRRRPPRLPRPRPRPGDQPRP | 0.272
RRIRGRPPRLPRPRPRPKADPRP | 1.29
RRIRWRPPRLPRPRPRPYEHPRP | -0.12

Sequence | shrunken log2 fold change
RRIRSRPPRLPRPRPRPPHGPRP | 0.1
RRIRERPPRLPRPRPRPIFCPRP | 0.0456
RRIRHRPPRLPRPRPRPWFLPRP | -0.315
RRIRIRPPRLPRPRPRPITKPRP | -0.123
RRIRTRPPRLPRPRPRPATAPRP | 0.362
RRIRGRPPRLPRPRPRPDYAPRP | -0.0775
RRIRFRPPRLPRPRPRPYNYPRP | -1.03
RRIRERPPRLPRPRPRPRLHPRP | 0.047
RRIRMRPPRLPRPRPRPQHYPRP | -0.116
RRIRRRPPRLPRPRPRPRCMPRP | 0.1
RRIRERPPRLPRPRPRPFHYPRP | -0.416
RRIRKRPPRLPRPRPRPKCSPRP | 0.00677
RRIRNRPPRLPRPRPRPIWFPRP | 0.205
RRIRIRPPRLPRPRPRPAGWPRP | 0.582
RRIRPRPPRLPRPRPRPLNHPRP | -0.363
RRIRNRPPRLPRPRPRPHHNPRP | -0.869
RRIRIRPPRLPRPRPRPFLEPRP | -1.1
RRIRNRPPRLPRPRPRPHWVPRP | -0.0512
RRIRHRPPRLPRPRPRPSIAPRP | -0.0614
RRIRCRPPRLPRPRPRPGQPPRP | 0.126
RRIRGRPPRLPRPRPRPVSDPRP | 1.26
RRIRGRPPRLPRPRPRPLRQPRP | 0.62

Sequence | shrunken log2 fold change
RRIRWRPPRLPRPRPRPHILPRP | -0.358
RRIRNRPPRLPRPRPRPRSPPRP | 2
RRIRERPPRLPRPRPRPWWEPRP | 0.0397
RRIRMRPPRLPRPRPRPYCRPRP | -0.0603
RRIRKRPPRLPRPRPRPAREPRP | 0.89
RRIRFRPPRLPRPRPRPIDKPRP | -0.499
RRIRDRPPRLPRPRPRPIMHPRP | -0.0198
RRIRMRPPRLPRPRPRPPLYPRP | 0.445
RRIRVRPPRLPRPRPRPLENPRP | 0.124
RRIRARPPRLPRPRPRPYCRPRP | -0.885
RRIRERPPRLPRPRPRPACHPRP | -0.0945
RRIRTRPPRLPRPRPRPFLYPRP | -0.786
RRIRSRPPRLPRPRPRPMTCPRP | 0.04
RRIRPRPPRLPRPRPRPRWCPRP | 0.171
RRIRKRPPRLPRPRPRPFVHPRP | -0.254
RRIRMRPPRLPRPRPRPPLMPRP | 1.34
RRIRNRPPRLPRPRPRPDRLPRP | -0.038
RRIRCRPPRLPRPRPRPRQLPRP | 0.0916
RRIRTRPPRLPRPRPRPATPPRP | 0.499
RRIRFRPPRLPRPRPRPVHGPRP | 0.284
RRIRNRPPRLPRPRPRPSCYPRP | -0.181
RRIRFRPPRLPRPRPRPQDCPRP | 0.00177

Sequence | shrunken log2 fold change
RRIRCRPPRLPRPRPRPMAEPRP | 0.331
RRIRCRPPRLPRPRPRPMGNPRP | -0.729
RRIRTRPPRLPRPRPRPDAAPRP | 0.424
RRIRQRPPRLPRPRPRPHSEPRP | -0.0749
RRIRRRPPRLPRPRPRPYQVPRP | -0.0648
RRIRHRPPRLPRPRPRPAMSPRP | 0.0912
RRIRKRPPRLPRPRPRPPCYPRP | 0.202
RRIRERPPRLPRPRPRPKQNPRP | -0.073
RRIRIRPPRLPRPRPRPQYKPRP | -0.848
RRIRQRPPRLPRPRPRPYTPPRP | -0.856
RRIRGRPPRLPRPRPRPDMTPRP | 3.09
RRIRDRPPRLPRPRPRPNYNPRP | -0.865
RRIRYRPPRLPRPRPRPWVHPRP | -0.701
RRIRRRPPRLPRPRPRPHTIPRP | 0.141
RRIRGRPPRLPRPRPRPSATPRP | 3.09
RRIRNRPPRLPRPRPRPIHYPRP | -0.285
RRIRIRPPRLPRPRPRPTTLPRP | -0.506
RRIRRRPPRLPRPRPRPEGHPRP | 0.488
RRIRFRPPRLPRPRPRPYLFPRP | 0.425
RRIRLRPPRLPRPRPRPVPCPRP | -0.239
RRIRLRPPRLPRPRPRPPANPRP | 0.592
RRIRGRPPRLPRPRPRPIIEPRP | 0.863

Sequence | shrunken log2 fold change
RRIRWRPPRLPRPRPRPHTIPRP | -0.533
RRIRTRPPRLPRPRPRPYLLPRP | -0.654
RRIRYRPPRLPRPRPRPWGCPRP | -0.404
RRIRERPPRLPRPRPRPELHPRP | 0.0652
RRIRCRPPRLPRPRPRPWQVPRP | 0.00859
RRIRDRPPRLPRPRPRPFKMPRP | -0.0853
RRIRNRPPRLPRPRPRPCGCPRP | 0.0239
RRIRMRPPRLPRPRPRPMTRPRP | 0.118
RRIRGRPPRLPRPRPRPNIYPRP | -0.13
RRIRNRPPRLPRPRPRPWWVPRP | -0.226
RRIRTRPPRLPRPRPRPMFAPRP | -0.0818
RRIRIRPPRLPRPRPRPNPLPRP | -0.0976
RRIRTRPPRLPRPRPRPHMKPRP | -0.712
RRIRGRPPRLPRPRPRPWIYPRP | -0.372
RRIRPRPPRLPRPRPRPLGTPRP | 0.125
RRIRMRPPRLPRPRPRPKMNPRP | 0.501
RRIRSRPPRLPRPRPRPAWPPRP | 0.49
RRIRLRPPRLPRPRPRPLYVPRP | -0.897
RRIRARPPRLPRPRPRPFFIPRP | -0.211
RRIRVRPPRLPRPRPRPGYDPRP | -0.422
RRIRTRPPRLPRPRPRPMCIPRP | -0.649
